Experimental data reported in patent US20030186329A1, “Use of substrate subtraction libraries to distinguish enzyme specificities” (The Scripps Research Institute, priority 1998, published 2003).

What was measured:
Format in all cases: biochemical
u-PA [1] = molecular target: T1, u-PA (Homo sapiens, UniProt P00749); experiment: Kinetics of cleavage of synthetic peptides by u-PA (HPLC, Eadie-Hofstee analysis); settings: hydrolysis of peptide by u-PA
T1 construct: purchased Jack Henkin (Abbott Laboratories)
Protocol: (§1) Concentrations of functional t-PA and u-PA were measured by active site titration with 4-methylumbelliferyl p-guanidinobenzoate (Jameson, G., et al., (1973) Biochem. J. 131, 107-117) using a Perkin-Elmer LS 50B Luminescence Fluorometer as previously described (Madison, E. L., et al., (1995) J. Biol. Chem. 270: 7558-7562). In addition, the enzymes were titrated with a standard PAI-1 preparation that had been previously titrated against a trypsin primary standard. Total enzyme concentrations were measured by ELISA.
(§2) Individual phage stocks were prepared and digested with no enzyme, t-PA, u-PA, or u-PA in the presence of 1 mM amiloride, a specific inhibitor of u-PA. Kinetic-data were obtained by incubating various concentrations of peptide with a constant enzyme concentration to achieve between 5 and 20% cleavage of the peptide in each reaction. For assays with u-PA, enzyme concentration was either 815 or 635 nM. For assays with t-PA enzyme concentration was 700 nM. […] The buffer used in these assays has been described (Madison, E. L., et al., 1995). Reactions were stopped by addition of triflouroacetic acid to 0.33% or by freezing on dry ice. Cleavage of the 13 and 14 residue peptides was monitored by reverse phase HPLC as described (Madison, E. L., et al., 1995). The 4-6 residue peptides were acylated at their amino termini and amidated at their carboxyl termini. Cleavage of the 4-6 residue peptides was monitored by hydrophilic interaction HPLC chromatography (HILIC) (Alpert, A. J. (1990) J. Chromatog. 499, 177-196.) using a polyhydroxyaspartamine column from PolyLC (Columbia, Md.). Buffer A was 50 mM triethylamine phosphate in 10% acetonitrile and buffer B was 10 mM triethylamine phosphate in 80% acetonitrile. Peptides were eluted by a gradient which was varied from 100% Buffer B to 100% Buffer A during a 13 minute interval. The percent of cleaved peptide was calculated by dividing the area under the product peaks by the total area under substrate and product peaks. For all peptides containing multiple basic residues, mass spectral analysis of products confirmed that cleavage occurred at a single site and identified the scissile bond. Data were interpreted by Eadie-Hofstee analysis. Errors were determined as described (Taylor, J. R., 1982) An introduction to error analysis. The study of uncertainties in physical measurements. University Science Books, Mill Valley, Calif.) and were <25%.
(§3) Kinetic data were obtained by incubating various concentrations of peptide with a constant enzyme concentration to achieve between 5 and 20% cleavage of the peptide in each reaction as described in Example 1.

t-PA [2] = molecular target: T2, t-PA (Homo sapiens, UniProt P00750); experiment: Kinetics of cleavage of synthetic peptides by t-PA (HPLC, Eadie-Hofstee analysis); settings: for Km / kcat, t-PA: hydrolysis of peptide by t-PA; for t-PA:u-PA Selectivity: ratio of kcat/Km for peptide hydrolysis, t-PA over u-PA
Protocol: as §1, §2, §3

t-PA [3] = molecular target: T2, t-PA; experiment: Dot blot assay of digestion of individual substrate phage stocks by t-PA; settings: for selectivity of substrate phage for t-PA or u-PA: digestion by t-PA and u-PA; for digestion of phage stock by t-PA: loss of antibody epitopes
Protocol: (§4) To verify that the substrate subtraction library had yielded substrates that were preferentially cleaved by t-PA, digestion of individual phage stocks by t-PA and u-PA was analyzed by a dot blot assay that was performed as previously described (Ding, L., et al., 1995; Smith, M. M., et al., 1995) (FIG. 3). Loss of positive staining indicates loss of antibody epitopes from the phage due to proteolytic cleavage of the random hexamer region.
(§5) In general, with the exception of the screening protocol, procedures followed were those used in Example 1. Digestion of the phage was performed using enzyme concentrations varying from 2-10 μg/ml and incubation times varying from 0.5-10 hours. Phage precipitation and dot blot analysis were performed as described in Example 1. Individual phage stocks were prepared and digested with no enzyme, t-PA, u-PA, or u-PA in the presence of 1 mM amiloride, a specific inhibitor of u-PA′ for periods of time varying from 15 minutes to 10 hours. Individual reaction mixtures were spotted onto a nitrocellulose filter using a dot blotter apparatus (BioRad). The filter was probed with MAb 3E-7 and developed using the Amersham Western ECL kit. Loss of positive staining indicates loss of antibody epitopes from the phage due to proteolytic cleavage of the randomized hexamer region.

u-PA [4] = experiment: Kinetics of cleavage of synthetic peptides by u-PA (HPLC, Eadie-Hofstee analysis); settings: ratio of kcat/Km for peptide hydrolysis, u-PA over t-PA
Protocol: as §1, §2, §3

u-PA [5] = molecular target: T1, u-PA; experiment: Dot blot assay of digestion of individual substrate phage stocks by u-PA; settings: loss of antibody epitopes
Protocol: as §4
as §5, with “The filter was probed with MAb 3E-7 and developed using the Amersham Western ECL kit. Loss of positive staining indicates loss of antibody epitopes from the phage due to proteolytic cleavage of the randomized hexamer region.” left out
Two changes were made in the experimental protocol to examine the P3 and P2 preferences of u-PA. […] Although this semi-quantitative assay cannot provide kinetic constants, it can provide an accurate rank ordering of the lability of the substrate phage clones.

T2 sequence (P00750 36-562): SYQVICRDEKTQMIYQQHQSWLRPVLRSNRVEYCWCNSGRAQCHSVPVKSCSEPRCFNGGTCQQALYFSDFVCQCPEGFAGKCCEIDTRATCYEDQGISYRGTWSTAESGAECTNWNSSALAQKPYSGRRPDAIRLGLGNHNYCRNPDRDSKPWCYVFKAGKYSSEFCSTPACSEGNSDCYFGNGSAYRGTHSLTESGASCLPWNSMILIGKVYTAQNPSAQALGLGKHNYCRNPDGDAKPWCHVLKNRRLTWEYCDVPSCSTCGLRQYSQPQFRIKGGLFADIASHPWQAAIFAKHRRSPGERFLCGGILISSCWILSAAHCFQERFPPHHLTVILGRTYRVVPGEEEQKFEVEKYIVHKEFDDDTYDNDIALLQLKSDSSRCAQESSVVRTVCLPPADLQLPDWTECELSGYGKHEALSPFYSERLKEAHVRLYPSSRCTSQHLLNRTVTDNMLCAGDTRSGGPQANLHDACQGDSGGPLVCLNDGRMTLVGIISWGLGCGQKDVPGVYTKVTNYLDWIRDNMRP

Substance | Km (u-PA [1]) [mM] | kcat, u-PA (u-PA [1]) [s⁻¹] | Km (t-PA [2]) [mM] | kcat, t-PA (t-PA [2]) [s⁻¹] | further results
SGK↓S (SGKS; listed as Homo sapiens) [XVII] | 7.9 | 1.22 | 28 | 0.19 | t-PA:u-PA Selectivity (t-PA [2]): 0.04
RSANAI [Phage 33] |  |  |  |  | selectivity of substrate phage for t-PA or u-PA (t-PA [3]): u-PA selective substrate
GSGK↓S (GSGKS; listed as Homo sapiens) [XVIII] | 4.25 | 0.82 | 44 | 0.07 | u-PA:t-PA Selectivity (u-PA [4]): approximately 120
LGGSGR↓KASLSLE (LGGSGRKASLSLE; listed as Homo sapiens) [XIV] | 1.13 | 1.14 | 5.1 | 0.168 | 
SGR↓SA (SGRSA; listed as Homo sapiens) [XVI] | 3.1 | 3.7 | 40 | 2.4 | 
SGR↓S (SGRS; listed as Homo sapiens) [XV] | 2.1 | 2.3 | 15 | 5.0 | t-PA:u-PA Selectivity (t-PA [2]): 0.30
PGRVVG [Control phage PL, reference compound] |  |  |  |  | digestion of phage stock by u-PA (u-PA [5]): not digested by either enzyme; digestion of phage stock by t-PA (t-PA [3]): not digested by either enzyme
FRGRAA [Phage 7] |  |  |  |  | selectivity of substrate phage for t-PA or u-PA (t-PA [3]): t-PA selective substrate
LGGSGR↓SATRDLE (LGGSGRSATRDLE; listed as Homo sapiens) [XIII] | 0.733 | 0.54 | 1.5 | 0.068 | 
RIARRA [Substrate phage 51] |  |  |  |  | digestion of phage stock by u-PA (u-PA [5]): substrate of both t-PA and u-PA; digestion of phage stock by t-PA (t-PA [3]): substrate of both t-PA and u-PA
FRGR↓K (FRGRK; listed as Homo sapiens) [VII] |  |  |  |  | t-PA:u-PA Selectivity (t-PA [2]): approximately 74
